We go through 8 molecules from patent US20250074996A1 (Innovent, published 2025).

Assay [1] addresses T1, human GPRC5D (human, UniProt Q9NZD1 1-345).
T1 construct: whole, on cells; also called huGPRC5D; G protein-coupled receptor family C group 5 member D
In words: flow cytometry on AMO-1 cells. On the procedure:
(§1) The affinity of the anti-GPRC5D antibody was detected by flow cytometry. Antibodies at various concentrations were co-incubated with cells expressing human GPRC5D, including GS-CHO cells overexpressing human GPRC5D (huGPRC5D GS-CHO), multiple myeloma cells MM1.R, H929 and AMO-1, for 30 min. A fluorescently-labeled secondary antibody (APC-mouse anti-human IgG Fc antibody, Biolegend, Cat #409306) was then added, the cell fluorescence intensity was detected using a Live/Dead yellow dead cell stain (Thermo Fisher, Cat #L34967) by flow cytometry, a curve was fitted using GraphPad Prism 8.0, and the EC50 value was calculated to show the binding affinity of the antibody to human GPRC5D.
(§2) Among the antibodies detected, HB15H1G1 (the heavy chain variable region of SEQ ID NO: 25, and the light chain variable region of SEQ ID NO: 26) was a fully human antibody, and ch5E12C4 (the heavy chain variable region of SEQ ID NO: 98, and the light chain variable region of SEQ ID NO: 99), ch11B7 (the heavy chain variable region of SEQ ID NO: 100, and the light chain variable region of SEQ ID NO: 101) and ch7F5D4 antibodies (the heavy chain variable region of SEQ ID NO: 27, and the light chain variable region of SEQ ID NO: 28) were chimeric antibodies.
On the technique in general: A flow cytometer gives signals particle by particle.

The target in assay [2] is T1, human GPRC5D. In words: flow cytometry on MM1.R cells. How it is done:
as §1, §2

Assay [3] has as its target T1, human GPRC5D. Briefly: flow cytometry on huGPRC5D-GS-CHO cells. On the procedure:
as §1, §2

Assay [4] deals with T1, human GPRC5D. In words: flow cytometry on H929 cells. How it is done:
as §1, §2

Assay [5] deals with T2, CD3E on the surface of Jurkat-NFAT-Luc cells (UniProt P07766 23-207). Briefly: cell-based or functional assay.
The target of assay [6] is T2, CD3E on the surface of Jurkat-NFAT-Luc …. Briefly: cell-based or functional assay. This is another data set of the same source.
The target is the same in assay [7]. In words: cell-based or functional assay. This is another data set of the same source.
Assay [8] shares this target. Briefly: cell-based or functional assay. The source holds these as a separate data set.
For assay [9] the target is unchanged. In words: cell-based or functional assay. This is another data set of the same source.

Like-named read-outs stand apart in the source and are kept apart here.

T1 sequence (Q9NZD1 whole entry): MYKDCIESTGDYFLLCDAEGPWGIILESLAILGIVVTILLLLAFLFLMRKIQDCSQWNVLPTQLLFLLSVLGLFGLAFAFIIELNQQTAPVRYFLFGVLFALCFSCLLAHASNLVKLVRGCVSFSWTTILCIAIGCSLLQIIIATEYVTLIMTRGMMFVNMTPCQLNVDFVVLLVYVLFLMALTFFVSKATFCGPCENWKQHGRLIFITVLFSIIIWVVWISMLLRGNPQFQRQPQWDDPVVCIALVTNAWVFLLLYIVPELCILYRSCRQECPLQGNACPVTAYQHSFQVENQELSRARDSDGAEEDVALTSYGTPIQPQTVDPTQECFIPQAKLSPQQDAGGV
T2 sequence (P07766 23-207): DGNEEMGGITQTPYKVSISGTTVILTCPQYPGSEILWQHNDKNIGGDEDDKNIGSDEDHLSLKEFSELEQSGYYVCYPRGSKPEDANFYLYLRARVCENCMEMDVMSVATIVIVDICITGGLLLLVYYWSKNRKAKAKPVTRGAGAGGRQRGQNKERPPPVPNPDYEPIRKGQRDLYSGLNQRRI

B1: ch7F5D4 (antibody, V domains shown)
VH: DVQLQESGPGLVKPSQSLSLTCTVTGYSITSDYAWNWIRQFPGNKLEWMVYIDYTGRTSYNPSLKSRISLTRDTSKNQFFLQFNSVTTEDTATYYCARGNYGRYYYVMDYWGQGTSVTVSS
VL: DIQMTQTTSSLSASLGDRVTISCRASQDIRNYLNWYQQRPDGTIKLLIYYTSRLHSGVPSRFSGSGSGTDYSLTISNLDQEDFATYFCQQGNMLPWTFGGGTSLEIK
On to B1, for which the EC50 with human GPRC5D [1] is 6.3 nM; in the assay with human GPRC5D [2], 0.5 nM; with human GPRC5D [3] it was 2.59 nM; with human GPRC5D [4], 7.3 nM.

B2: ch11B7 (antibody, V domains shown)
VH: EVQLQQSVAELARPGASVKMSCKASGYTFTTYTMHWVKQRPGQGLEWIGFIIPSSGYTSYNQNFKDKVTLTADKSSSTAYMQLSSLTSEDSAVYFCTGGQARAYYPLDYWGQGTSVTVSS
VL: DIVMTQSPAILSVSPGERVSFSCRASQSIGTTIHWYQQRSNGSPRLLIKYASESISGIPSRFSGSGSGTYFTLSINSVESEDIADYFCQQSYNWPRTFGGGTKLEIK
Turning to B2, the figures for the half-maximal effective concentration (EC50) with human GPRC5D [3] and with human GPRC5D [4] were 1.14 nM and 5.99 nM, respectively.

B3: ch5E12C4 (antibody, V domains shown)
VH: EVQLQQSGPELVKPGASVKMSCKASGYTFIGYVMHWVKRKPGQGLEWIGYINPYNDVSQHNGKFKGKATLTSDKSSSTAYMELSSLTSEDSAVYYCAREGRLGLRVLAYWGQGTLVTVSA
VL: not shown
B3: the EC50 with human GPRC5D [1] turned out to be 100 nM; with human GPRC5D [2], 3.7 nM; with human GPRC5D [3], 9.18 nM; in the assay with human GPRC5D [4], 21.7 nM.

B4: BCMA×CD3 bispecific antibody 46758 (bispecific antibody, human IgG1, kappa, L234A L235A)
chain 1: not shown
chain 2: not shown
chain 3: DIVMTQSPDSLAVSLGERATINCKSSQSLLNARTGKNYLAWYQQKPGQPPKLLIYWASTRESGVPDRFSGSGSGTDFTLTISSLQAEDVAVYYCKQSYSRRTFGCGTKVEIKGGGGSGGGGSGGGGSGGGGSQVQLVQSGAEVKKPGASVKVSCKASGFNIKDYYMHWVRQAPGQCLEWMGWIDLENANTVYNAKFQGRVTITRDTSASTAYMELSSLRSEDTAVYYCARDAYGRYFYDVWGQGTLVTVSSGSEPKSSDKTHTCPPCPAPEAAGGPSVFLFPPKPKDTLMISRTPEVTCVVVDVSHEDPEVKFNWYVDGVEVHNAKTKPREEQYNSTYRVVSVLTVLHQDWLNGKEYKCKVSNKALPAPIEKTISKAKGQPREPQVCTLPPSRDELTKNQVSLSCAVKGFYPSDIAVEWESNGQPENNYKTTPPVLDSDGSFFLVSKLTVDKSRWQQGNVFSCSVMHEALHNHYTQKSLSLSPGK
For the molecule B4, in assay [5], the “EC50 of Jurkat-NFAT-Luc luciferase activation; target cells huGPRC5D-GS-CHO” value stood at 0.0059 nM, the “EC50 of Jurkat-NFAT-Luc luciferase activation; tumor cells H929” value (from here on “EC50 … tumor cells H929”) is 0.344 nM, the “EC50 of Jurkat-NFAT-Luc luciferase activation; tumor cells L363” value (“EC50 … tumor cells L363” for short) stood at 0.192 nM and the “EC50 of Jurkat-NFAT-Luc luciferase activation; tumor cells U266” value (“EC50 … tumor cells U266” below) worked out at 0.0311 nM. Besides, in [6], the “EC50 of Jurkat-NFAT-Luc luciferase activation; tumor cells 8226” value was 0.0798 nM, the “EC50 … tumor cells H929” value is 0.0835 nM, the “EC50 … tumor cells L363” value stood at 0.0901 nM and the “EC50 … tumor cells U266” value worked out at 0.603 nM. Further, in assay [7], the “EC50 … tumor cells H929” value stood at 0.07 nM and the “EC50 … tumor cells L363” value is 0.43 nM. In addition, in [8], the “EC50 of Jurkat-NFAT-Luc luciferase activation; tumor cells ARD” value was determined as 0.133 nM and the “EC50 of Jurkat-NFAT-Luc luciferase activation; tumor cells MM.1S” value was determined as 0.159 nM. Further, in [9], the “EC50 of Jurkat-NFAT-Luc luciferase activation; tumor cells 8226” value is 0.0798 nM, the “EC50 … tumor cells H929” value stood at 0.0835 nM, the “EC50 … tumor cells L363” value was determined as 0.0901 nM and the “EC50 … tumor cells U266” value worked out at 0.603 nM.

B5: GPRC5D × CD3 (HB15H/hzsp34.24) (bispecific antibody, V domains shown)
VH 1: QVQLVESGGGVVQPGRSLRLSCTASGFTFSSYGLHWVRQAPGKGLEWVAVIWYDGSNKYYIDSVKGRFIISRDNSKNTLYLQMNSLRAEDTAVYYCARFTMFRGITLDYWGQGTLVTVSS
VL 1: DIQMTQSPSSLSASVGDRVTITCRASQRINSYLNWYQQKPGKAPKLLIYAASSLQSGVPSRFSGSGSGTDFTLTISNLQPEDFATYYCQQSYSTPLTFGGGTKVEIK
VH 2: EVQLVESGGGLVQPGGSLKLSCAASGFTFNTYAMNWVRQASGKGLEWVGRIRSKYNNYATYYADSVKDRFTISRDDSKSTLYLQMNSLKTEDTAVYYCARHGNFGQSYVSWFAYWGQGTTVTVSS
VL 2: QAVVTQEPSLTVSPGGTVTLTCRSSTGAVTTSNYANWVQQKPGQAPRGLIGGTNKRAPGVPARFSGSLLGDKAALTLLGAQPEDEAEYYCALWYSNLWVFGQGTKLTVL
With B5, in [7], the “EC50 … tumor cells H929” value is 0.01 nM and the “EC50 … tumor cells L363” value is 0.28 nM.

B6: HB15H1G1 (antibody, V domains shown)
VH: QVQLVESGGGVVQPGRSLRLSCTASGFTFSSYGLHWVRQAPGKGLEWVAVIWYDGSNKYYIDSVKGRFIISRDNSKNTLYLQMNSLRAEDTAVYYCARFTMFRGITLDYWGQGTLVTVSS
VL: DIQMTQSPSSLSASVGDRVTITCRASQRINSYLNWYQQKPGKAPKLLIYAASSLQSGVPSRFSGSGSGTDFTLTISNLQPEDFATYYCQQSYSTPLTFGGGTKVEIK
notes: Fully human anti-GPRC5D antibody; also called HB15H1B1
For the molecule B6, the EC50 with human GPRC5D [1] came to 9.4 nM; in the assay with human GPRC5D [2], 0.7 nM; in the assay with human GPRC5D [3] it was 1.89 nM; with human GPRC5D [4], 3.7 nM.

B7: TS-F2-1 (HB15H1G1/SP34.24/38456) (antibody, human IgG1, kappa, lambda, L234A L235A)
heavy 1: not shown
light 1: not shown
heavy 2: not shown
light 2: QAVVTQEPSLTVSPGGTVTLTCRSSTGAVTTSNYANWVQQKPGQAPRGLIGGTNKRAPGVPARFSGSLLGDKAALTLLGAQPEDEAEYYCALWYSNLWVFGQGTKLTVLGQPKAAPSVTLFPPSSEELQANKATLVCLISDFYPGAVTVAWKADSSPVKAGVETTTPSKQSNNKYAASSYLSLTPEQWKSHRSYSCQVTHEGSTVEKTVAPTECS
For the molecule B7, the “EC50 … tumor cells L363” value in [7] came out at 0.24 nM.

B8: TS-F2-2 (38456/SP34.24/HB15H1G1) (antibody, human IgG1, kappa, lambda, L234A L235A)
heavy 1: not shown
light 1: not shown
heavy 2: not shown
light 2: QAVVTQEPSLTVSPGGTVTLTCRSSTGAVTTSNYANWVQQKPGQAPRGLIGGTNKRAPGVPARFSGSLLGDKAALTLLGAQPEDEAEYYCALWYSNLWVFGQGTKLTVLGQPKAAPSVTLFPPSSEELQANKATLVCLISDFYPGAVTVAWKADSSPVKAGVETTTPSKQSNNKYAASSYLSLTPEQWKSHRSYSCQVTHEGSTVEKTVAPTECS
As for B8, in assay [7], the “EC50 … tumor cells H929” value was found to be 0.01 nM and the “EC50 … tumor cells L363” value was determined as 0.13 nM.

What is called EC50 is the concentration at which the effect is half-maximal. Read a low EC50 as higher potency in that assay.
